Columns and labels:
[1] = tested on: BBCEC monolayers; assay: Accumulation of ligands in BBCEC monolayers; type: cell-based, bovine; conditions: FIG. 7
Procedure: FIG. 7 illustrates the results of experiments where the ligands p97, Lf and Tf were heated or not heated prior to the binding study. In all cases, binding experiments were conducted in the transwell apparatus as described previously, with the exception that binding was conducted at either 4° C. or at 37° C. For the 37° C. trial, a separate experiment was conducted where the ligand was boiled for 30 mins then rapidly cooled prior to administration on the transwell plates.
FIG. 13 illustrates the transcytosis and accumulation of p97 and transferrin in BBCEC monolayers. FIG. 13a, Transcytosis experiments were performed at 37° C. (solid bars) or 4° C. (white bars). [^125I]-p97 or bovine [^125I]-holo-transferrin (1 mg/ml) was added to the upper side of the cell-covered filter. At the end of the experiment, radiolabelled proteins were measured in the lower chamber of each well by TCA precipitation (n=4). […] The surface plasmon resonance response obtained for native p97 and boiled p97 was plotted (in relative units (RU)) as a function of time; FIG. 13c, The accumulation of both proteins into BBEC cells were also measured. […] Accumulation of both denatured proteins (grey bars) was also measured at 37° C. Filters were then removed, and the radioactivity associated with the cells was quantified (n=3). […]

[2] = Brain uptake one hour after i.v. injection; type: in vivo; conditions: mice, one hour after i.v. injection of [125I]-protein (FIG. 11a)
Procedure: (§1) FIG. 11 examines the accumulation and transcytosis of p97. FIG. 11a, of [^125I]-p97, [^125I]-BSA and [^125I]-holo-transferrin one hour after i.v. injection. The radioactivity in brain was compared between the three compounds. (n=3); FIG. 11b, Accumulation of p97 and transferrin into the mouse brain parenchyma. In situ brain perfusion was performed with human [^125I]-p97 or [^125I]-holo-transferrin at a final concentration of 10 nM via a catheter inserted in the right common carotid artery. The volume of distribution (VD) of [^125I]-proteins were obtained in the whole brain homogenate (white bars), in brain capillaries (solid bars) and in brain parenchyma (hatched bars) after isolation of the right hemisphere and capillary depletion. Results were obtained for p97 (n=10) and for holo-transferrin (n=6); FIG. 11c, Transcytosis of p97 across BBCEC monolayers. Transcytosis experiments were performed 37° C. (open circles) and 4° C. (closed circles) with BBCEC monolayers. […] Apical-to-basal and basal-to-apical transport of [^125I]-p97 (25 nM) was measured for 2 hrs at 37° C. At the end of the experiment, [^125I]-p97 was assessed in the lower or upper chambers of each well by TCA precipitation (n=4).
(§2) A. Brain uptake and in situ brain perfusion. […] The serum and brain samples were collected and the levels of radioactivity were measured. […]

[3] = In situ brain perfusion with capillary depletion; type: in vivo; conditions: mice, 10 min perfusion, 10 nM [125I]-protein (FIG. 11b)
Procedure: as §1, §2

transferrin: transferrin (Tf), iron-binding serum protein used as comparator and competitor
Accumulation in BBB model cells [1]: very little accumulation | Brain/serum ratio [2]: 0.008 | Apparent VD in the brain parenchyma [3]: 2.4 ml/100 g

From US7977317B2, “Compositions and methods for modulating blood-brain barrier transport” (Raptor Pharmaceutical Inc., priority 2001, dated 2011)
